Laboratory results: publication PMC5328894, “Characterization of a Bacillus thuringiensis chitinase that binds to cellulose and chitin” (AMB Express, 2017)

Substrate: CC(=O)N[C@H]1[C@H](Oc2ccc([N+](=O)[O-])cc2)O[C@H](CO)[C@@H](O[C@@H]2O[C@H](CO)[C@@H](O)[C@H](O)[C@H]2NC(C)=O)[C@@H]1O
Test: initial-rate hydrolysis, Michaelis-Menten fit
Format: biochemical, Bacillus thuringiensis
Conditions: 50 mM MES-NaOH, pH 6.0, 50 °C, 0.05-0.8 mM substrate
From the text: initial-rate hydrolysis, Michaelis-Menten fit on BthChi74

B1: BthChi74 (Bacillus thuringiensis serovar israelensis ATCC 35646) (protein)
chain: MAMRSQKFTLLLLSLLLFLPLFLTNFITPNLALADSPKQSQKIVGYFPSWGVYGRNYQVADIDASKLTHLNYAFADICWKGKHGNPSTHPDNPNKQTWNCKESGVPLQNKEVPNGTLVLGEPWADVTKSYPGSGTTWEDCDKYARCGNFGELKRLKAKYPHLKTIISVGGWTWSNRFSDMAADEKTRKVFAESTVAFLRAYGFDGVDLDWEYPGVETIPGGSYRPEDKQNFTLLLQDVRNALNKAGAEDGKQYLLTIASGASQRYADHTELKKISQILDWINIMTYDFHGGWEATSNHNAALYKDPNDPAANTNFYVDGAIDVYTNEGVPVDKLVLGVPFYGRGWKSCGKENNGQYQPCKPGSDGKLASKGTWDDYSTGDTGVYDYGDLTANYVNKNGFVRYWNDTAKVPYLYNATTGTFISYDDNESMKYKTDYIKTKGLSGAMFWELSGDCRTSPKYSCSGPKLLDTLVKELLGGPINQKDTEPPTNVKNIIVTNKTSSSVQLSWTASTDNVGVTEYEITAGEEKWSATTNSITIKNLKPNTEYTFSVIAKDASGNKSHPTALTVKTDEANTTPPDGNGTATFSVTSNWGSGYNFSIIIKNNGTIPIKNWKLEFDYSGNLTQVWDSKISSKTNNHYVITNAGWNGEIPPGGSITIGGAGTGNPAELLNAVISEN
notes: GH18 catalytic domain + FNIII + CBM2; pET21d(+), E. coli BL21(DE3); vector-derived additions at N- and C-termini, C-terminal His6 designed but probably lost by processing; expected 76 kDa, 74 kDa on SDS-PAGE
Protein B1 has a Km of 159 ± 0.5 µM, a kcat of 1.5 ± 0.02 s⁻¹ and a kcat/Km of 10000 M⁻¹ s⁻¹.
